Source: US20230071765A1, “COMPOSITIONS HAVING THIOREDOXIN ACTIVITY AND RELATED METHODS” (ORPRO THERAPEUTICS, INC., priority 2020, published 2023)

Key:
[1] = tested on: 4% HBE mucus from CF donors; test: rheology of 4% solids CF HBE mucus (G′, G″); format: biochemical, human; conditions: 1 hr at 37° C.
Description: Mucus Preparation: Aseptic mucus was harvested from over 100 individual HBE cultures from 20 different CF donors and prepared to four weight-percent (4%) solids, a concentration that typifies chronic obstructive pulmonary disease (COPD) and mild CF (Hill, D. B. et al., 2014, A biophysical basis for mucus solids concentration as a candidate biomarker for airways disease, PloS one 9, e87681; Anderson, W. H. et al., 2015, The relationship of mucus concentration (hydration) to mucus osmotic pressure and transport in chronic bronchitis., Am J Resp Crit Care Med 192: 182-90). Rheology: HBE cell culture mucus was treated with DTT (1 mM) and several concentrations of ORP100S (0.01, 0.1, and 1.0 mM) for 1 hr at 37° C. following previously established methods (Hill, D. B., and Button, B., 2012, Establishment of respiratory air-liquid interface cultures and their use in studying mucin production, secretion, and function. In Mucins: Methods and Protocols, D. J. Thornton, ed., pp. 245-58; Youngren-Ortiz, S. et al., 2017, Development of optimized inhalable Gemcitabine-loaded gelatin nanocarriers for lung cancer, J Aerosol Med Pulm Drug Delivery 30:299-321; Seagrave, J., et al., 2012, Effects of guaifenesin, N-acetylcysteine, and ambroxol on MUC5AC and mucociliary transport in primary differentiated human tracheal-bronchial cells, Respir Res 13: 98). Concentration and time course assays were performed using a TA Instruments DHR3 rheometer to assess the bulk, macroscopic biophysical effects of test article and controls on HBE mucus properties. Briefly, the linear regime of a 1 Hz amplitude (stress) sweep was identified for each treatment condition. […] Creep recovery experiments were performed in which a known stress (between 0.05 and ˜100 Pa) was applied to treated or control mucus for 10 seconds, and the rheological recovery of the fluid was recorded for an additional 50 seconds. […] From the measured parameters the viscosity and elasticity of the fluid were determined as a function of applied stress. Frequency sweeps were performed at both constant stress and strains and used to determine the baseline physical properties of mucus and its elastic and viscous components (G′ and G″, respectively). Mucin molecular weight determination: Molecular weight reduction following test article treatment was determined using a combination of gel-permeation chromatography with multi-angle laser light scattering on a Wyatt Heleos MALLS system. MALLS is a rapid and accurate means of determining molecular size and mass of high MW biomolecules in a non-destructive manner without requiring the use of relative standards. Briefly, 4% HBE treated samples were diluted 100-fold in 0.9% NaCl with 10 mM EDTA and 0.01% sodium azide. 0.2 mL of diluted sample was eluted through a Sepharose CL2B column to separate high MW mucins from other mucus proteins, and the mucin fraction was introduced into the MALLS system. Mucin MW was determined by fitting a Berry model to light scattering from 11 different angles using Wyatt Astra software.
FIGS. 5, A and B (top): Reduction in Elastic (G′) and Viscous (G″) moduli of 4% solids dry weight mucus reduced with DTT (1 mM) and ORP100S (0.01, 0.1, and 1.0 mM concentrations) for 1 hr at 37° C. […] All data were collected by examining frequency sweeps of mucus performed in the linear regime and analyzed at 1 rad/s on a TA DHR3 rheometer.

[2] = tested on: CF patient sputum on wild type rat trachea; test: CF sputum transport ex vivo on excised rat trachea (μOCT); design: species or system human sputum
Procedure: To determine the effect of ORP100S on CF sputum transportability, sputum specimens spontaneously expectorated from 4 CF patients hospitalized for pulmonary exacerbation were collected and stored at 4° C. before being divided into 200 μL aliquots and treated with ORP100S (3 mM), PBS, DTT (1.6 mM), or DNase (10 or 25 μg/ml) on the day of or day following collection. Upon treatment, sputum aliquots were placed in a 37° C. water bath for 2 hrs and then applied (3 μl per sample) for μOCT imaging to the distal end of trachea excised from adult non-CF rats. Trachea were washed 2× with 500 μl of PBS before sputum addition. Sample conditions were applied in triplicate in random order at distinct anatomic locations—2 washes using 500 μl of PBS were performed between each sample addition—and at least 3 images were collected from each region of interest. Confirmation of trachea viability was obtained by imaging with PBS upon completion of the experiment.
One-micron resolution spectral domain μOCT was used to obtain measurements of mucociliary transport (MCT) rate and ciliary beat frequency (CBF) in HBE monolayers and of MCT rate of sputum ex vivo. This first-in-kind, high-speed (40 frames per second, 512 lines per frame) microscopic reflectance imaging modality enables simultaneous anatomic imaging in cell cultures and intact tissues that readily distinguishes the properties of CF compared to normal epithelia (Liu L, Chu K K, Houser G H, Diephuis B J, Li Y, Wilsterman E J, Shastry S, Dierksen G, Birket S E, Mazur M, et al., 2013, Method for quantitative study of airway functional microanatomy using micro-optical coherence tomography, PLoS One 8(1):e54473; Tuggle K L, Birket S E, Cui X, Hong J, Warren J, Reid L, Chambers A, Ji D, Gamber K, Chu K K, et al., 2014, Characterization of defects in ion transport and tissue development in Cystic Fibrosis Transmembrane Conductance Regulator (CFTR)-knockout rats. PLoS One 9(3):e91253). In addition to MCT rate and CBF, μOCT also has the capability to assess physical characteristics of the airway surface liquid. Images were captured, and MCT rate and CBF calculated, as described in the preceding references.
The effect of ORP100S on mucus clearance using intact rat trachea, which include the complexities of the airway surface such as gland expression of a fully differentiated mucosal surface, was further evaluated. […] MCT was measured by projecting a cross-sectional line through the mucus through time, with the slope of the particle trajectories indicating velocity. […]

B1: ORP100S: thioredoxin with monothiol active site, Cys35 and non-active Cys 62, 69 and 73 substituted with serine (SEQ ID NO:29) (protein)
chain: MVKQIESKTAFQEALDAAGDKLVVVDFSATWCGPSKMIKPFFHSLSEKYSNVIFLEVDVDDSQDVASESEVKSMPTFQFFKKGQKVGEFSGANKEKLEATINELV
modifications: synthetic peptide motif
reduction in elastic modulus G′ ([1]; 10 μM): significant reduction in G′ was not apparent | reduction in viscous modulus G″ ([1]; 10 μM): ~2 fold | reduction in viscous modulus G″ ([1]; 100 μM): reduced by a similar amount as observed with 10 μM | elastic modulus G′ ([1]; 100 μM, baseline value 0.28 Pa): 0.19 Pa | reduction in G′, factor ([1]; 1 mM): ~3 | reduction in G″, factor ([1]; 1 mM): ~3 | sputum density vs. PBS-treated sputum ([2]; 3 mM, μOCT images): effective in decreasing sputum density | change in MCT rate normalized to the effect of PBS ([2]; sputum treated 2 hrs, ORP100S 3 mM, DTT 1.6 mM, DNase 10 or 25 μg/ml): 3.80±0.35 fold vs. PBS | MCT rate of treated sputum ([2]; sputum treated 2 hrs, ORP100S 3 mM, DTT 1.6 mM, DNase 10 or 25 μg/ml, PBS 0.97±0.17): 4.68±0.9 mm/min
